{
  "source": "patent US20030186329A1",
  "about": "“Use of substrate subtraction libraries to distinguish enzyme specificities” (The Scripps Research Institute, priority 1998, published 2003)",
  "molecules": {"B1": {"name": "fusion protein: maltose binding protein fused to HY4 gene product of Arabidopsis thaliana with linking region QRGRSA (protein)", "chain": "QRGRSAMSGSVSGCGSGGCSIVWFRRDLRVEDNPALAAAVRAGPVIALFVWAPEEEGHYHPGRVSRWWLKNSLAQLDSSLRSLGTCLITKRSTDSVASLLDVVKSTGASQIFFNHLYDPLSLVRDHRAKDVLTAQGIAVRSFNADLLYEPWEVTDELGRPFSMFAAFWERCLSMPYDPESPLLPPKKIISGDVSKCVADPLVFEDDSEKGSNALLARAWSPGWSNGDKALTTFINGPLLEYSKNRRKADSATTSFLSPHLHFGEVSVRKVFHLVRIKQVAWANEGNEAGEESVNLFLKSIGLREYSRYISFNHPYSHERPLLGHLKFFPWAVDENYFKAWRQGRTGYPLVDAGMRELWATGWLHDRIRVVVSSFFVKVLQLPWRWGMKYFWDTLLDADLESDALGWQYITGTLPDSREFDRIDNPQFEGYKFDPNGEYVRRWLPELSRLPTDWIHHPWNAPESVLQAAGIELGSNYPLPIVGLDEAKARLHEALSQMWQLEAASRAAIENGSEEGLGDSAEVEEAPIEFPRDITMEETEPTRLNPNRRYEDQMVPSITSSLIRPEEDEESSLNLRNSVGDSRAEVPRNMVNTNQAQQRRAEPASNQVTAMIPEFNIRIVAESTEDSTAESSSSGRRERSGGIVPEWSPGYSEQFPSEENGIGGGSTTSSYLQNHHEILNWRRLSQTG", "modifications": "left off: large carriers"}},
  "key": {"t-PA": {"target": "t-PA (Homo sapiens, UniProt P00750)", "sequence (P00750 36-562)": "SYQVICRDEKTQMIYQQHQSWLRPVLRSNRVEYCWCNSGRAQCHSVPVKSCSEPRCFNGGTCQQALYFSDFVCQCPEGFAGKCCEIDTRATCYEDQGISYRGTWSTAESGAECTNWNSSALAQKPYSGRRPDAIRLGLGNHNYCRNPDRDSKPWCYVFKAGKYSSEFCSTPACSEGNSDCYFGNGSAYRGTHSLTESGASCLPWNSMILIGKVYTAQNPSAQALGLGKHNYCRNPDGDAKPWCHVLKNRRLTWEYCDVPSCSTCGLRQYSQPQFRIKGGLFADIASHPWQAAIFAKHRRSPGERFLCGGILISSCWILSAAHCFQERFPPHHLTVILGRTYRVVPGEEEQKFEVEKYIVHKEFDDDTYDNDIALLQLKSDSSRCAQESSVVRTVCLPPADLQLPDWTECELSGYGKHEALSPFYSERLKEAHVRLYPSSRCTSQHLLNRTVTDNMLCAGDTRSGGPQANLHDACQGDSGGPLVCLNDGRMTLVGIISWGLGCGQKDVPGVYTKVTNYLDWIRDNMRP", "test": "Cleavage of maltose binding protein-QRGRSA-HY4 fusion protein by t-PA (SDS-PAGE)", "assay_type": "biochemical", "details": "150 nM enzyme, 16 hours at 25 C", "protocol": "(§1) The fusion consists of maltose binding protein fused to the amino terminus of the HY4 gene product of Arabidopsis thaliana with a linking region in between coding for the amino acid sequence QRGRSA, which is cleaved by t-PA between R and S. The concentration of fusion protein in each lane is […] and the concentration of u-PA or […] is 150 nM. The reaction buffer contains 50 mM Tris pH 7.5, 0.1 M NaCl, 1 mM EDTA, and 0.01% Tween 20. Reactions were set up in a total volume of […] and allowed to incubate 16 hours at 25 C. and then stopped by the addition of […] of 5× loading buffer and separated by electrophoresis on 12% polyacrylamide. The gel was stained with Coomassie Brilliant Blue 30 minutes and de-stained overnight."}, "u-PA": {"target": "T1, u-PA (Homo sapiens, UniProt P00749)", "T1 construct": "purchased Jack Henkin (Abbott Laboratories)", "test": "Cleavage of maltose binding protein-QRGRSA-HY4 fusion protein by u-PA (SDS-PAGE)", "assay_type": "biochemical", "details": "150 nM enzyme, 16 hours at 25 C", "protocol": "as §1"}},
  "data": [
    {"molecule": "B1", "values": [
      {"measurement": "cleavage of fusion protein by t-PA", "setting": "t-PA", "result": "readily cleaved"},
      {"measurement": "cleavage of fusion protein by u-PA", "setting": "u-PA", "result": "did not"}
    ]}
  ]
}
